This series relates to Saccharomyces cerevisiae. The series is described as follows: protein stability index of tFT-peptide fusion (C-terminal peptide) (PSI (0-1 scale)); higher = more stable (slower turnover). The settings on record: genetic background: wild type; temperature: 30 C.

± gives the standard deviation of the averaged measurements.
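Note: PSI is a weighted mean of sequencing reads over stability bins, variants kept only with over 10 reads, mCherry proximal and sfGFP distal, peptide attached via GGGS linker.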

Sequence WLGLGGARGCML yielded a protein stability index of 0.745 ± 0.057.
WLNMKFRTLCGS had a protein stability index of 0.634 ± 0.038.
Sequence WLPRPHPPLRPA returned a protein stability index of 0.724 ± 0.08.
On to WLRPRSFSVVAT, for which the protein stability index stood at 0.52821 ± 0.00016.
Consider WLSMLLTVAPHH, for which the protein stability index is 0.64278 ± 0.00026.
WLTCICSSVAPL registered a protein stability index of 0.698 ± 0.042.
Sequence WLVGEWPGRWGR yielded a protein stability index of 0.728 ± 0.037.
WMSFLARVVTFE: the protein stability index is 0.716 ± 0.025.
For the sequence WMSVCCRSALVD, the protein stability index was 0.65 ± 0.011.
In turn, WMTFKKLQCNRT displayed a protein stability index of 0.682 ± 0.027.
WNGIDQSMSGRR came in with a protein stability index of 0.694 ± 0.099.
WPHAPSLPRFSG displayed a protein stability index of 0.69 ± 0.018.
Sequence WPLSYLPLSSPP registered a protein stability index of 0.701 ± 0.01.
WPRVCPFSLYDA: the protein stability index amounted to 0.723 ± 0.012.
WRQRLKTNNITT: the protein stability index was found to be 0.733 ± 0.018.
For WRRPKAGRHAPC the value was 0.685 ± 0.0065.
In turn, WRSGRGRCAVSQ returned a protein stability index of 0.721 ± 0.045.
For WRTPVCSPFLLG the value was 0.691 ± 0.0053.
Consider WSCTPRTPPPPR, for which the protein stability index was found to be 0.7925 ± 0.002.
On to WSESVKEASFTS, for which the protein stability index came to 0.756 ± 0.028.
For WSFGRWGGAGAR, the protein stability index is 0.629 ± 0.044.
For WSFSSGCWGYVG the value was 0.6281 ± 0.0036; for WSGGAGGGGRLG, 0.645 ± 0.088.
For WSIWRLPSFEWV the value was 0.741 ± 0.04.
Consider WSKEQRRGGCGQ, for which the protein stability index stood at 0.714 ± 0.015.
Sequence WSLIARYSPCHF had a protein stability index of 0.67 ± 0.027.
WSRGGVLGVCCG had a protein stability index of 0.536 ± 0.031.
The sequence WSSRGAIDSARH gave a protein stability index of 0.762 ± 0.019.
WSTGEKMALHGR registered a protein stability index of 0.787 ± 0.12.
For WSTVCKIAGAID the value was 0.706 ± 0.028.
The sequence WTSPRISPRSPL registered a protein stability index of 0.726 ± 0.014.
For WVEACVCRGFVG the value was 0.698 ± 0.059; for WVGAVVGAGGRW, 0.614 ± 0.089; for WVGFRTFGVWGV, 0.707 ± 0.063.
The sequence WVGGDINFWWGG had a protein stability index of 0.747 ± 0.12.
Regarding WVGGVACGAGGG, the protein stability index worked out at 0.62 ± 0.069.
Sequence WVKPVRAWTILR returned a protein stability index of 0.605 ± 0.025.
Sequence WVPGPLEPSLVL gave a protein stability index of 0.774 ± 0.0096.
Consider WVPLGPFCLPLF, for which the protein stability index turned out to be 0.724 ± 0.1.
For WVPPPPYSPFSL, the protein stability index stood at 0.695 ± 0.027.
WVRIGVEFGWGE displayed a protein stability index of 0.689 ± 0.11.
Consider WVRQYFRGLQLR, for which the protein stability index turned out to be 0.595 ± 0.074.
The sequence WVSWGCCSFLLT showed a protein stability index of 0.616 ± 0.0092.
Then WVVSLTNSLAHV, with 0.581 ± 0.013; and WVVSRGPFAVGP, with 0.68 ± 0.021.
Turning to WWEVSFRVGAVR, the protein stability index was found to be 0.648 ± 0.025.
The sequence WWGRWPGLAGGR yielded a protein stability index of 0.716 ± 0.068.
Then WWKLSGTGWGTL, with 0.73 ± 0.022; and WWLRLVLCGWEW, with 0.721 ± 0.074.
Then WWSFVGACDGVG, with 0.549 ± 0.012; and WWWGGVRGGMGG, with 0.749 ± 0.026.
For YADAGRVSLWIA the value was 0.5512 ± 0.0054; for YAERNKKTLKDT, 0.638 ± 0.011; for YALWRFRSLADV, 0.695 ± 0.1.
The sequence YCGGRCGGWEIG registered a protein stability index of 0.698 ± 0.012.
On to YCSITGIRLLVG, for which the protein stability index came to 0.579 ± 0.023.
YDAGWVDVLLVI returned a protein stability index of 0.6419 ± 0.0064.
For YDGGLAALQVLL the value was 0.68 ± 0.051; for YDIAVDAEIDPY, 0.685 ± 0.0081.
For YEKWIKKCNKEE the value was 0.689 ± 0.068; for YEQLSGHPPVVR, 0.7236 ± 0.0014.
Take YFGGMGPRGRER: the protein stability index was determined as 0.683 ± 0.016.
YFSQPLGPSPLL: the protein stability index was 0.812 ± 0.074.
With YFWTHLISIPDV, the protein stability index stood at 0.676 ± 0.062.
With YGCSRALGCMGG, the protein stability index is 0.596 ± 0.14.
The sequence YGFLFRFLSPNP registered a protein stability index of 0.6788 ± 0.0038.
Then YGGLFFLVSLPP, with 0.566 ± 0.0082.
The sequence YGIILPIRVSGF registered a protein stability index of 0.631 ± 0.035.
The sequence YGSGSDGRGGPG returned a protein stability index of 0.662 ± 0.0077.
Take YGVCFKAFQFKL: the protein stability index amounted to 0.676 ± 0.056.
In turn, YHALNSLHPPSP returned a protein stability index of 0.69 ± 0.027.
In turn, YHNFLPRPPRKR registered a protein stability index of 0.662 ± 0.077.
For YIIEGKRKYNRI the value was 0.682 ± 0.029.
Sequence YILLGEFAGVFP gave a protein stability index of 0.689 ± 0.17.
With YINIKKKKINKT, the protein stability index was determined as 0.688 ± 0.039.
Consider YINVEPRITKNT, for which the protein stability index was 0.709 ± 0.0085.
YIPPGNTTVPSC gave a protein stability index of 0.694 ± 0.038.
Then YKPKGSKKFKNK, with 0.624 ± 0.029; and YKSELSIPYAPV, with 0.687 ± 0.015; and YLLDTLTAAREI, with 0.673 ± 0.016.
In the case of YLLLVPDTRTLL, the protein stability index is 0.683 ± 0.0079.
For YLLYSDSLCFVT the value was 0.659 ± 0.03; for YLPDPVVSLAHS, 0.656 ± 0.063; for YLYLKSRDTFLN, 0.7094 ± 0.0013.
With YMGDFRPAFAVT, the protein stability index was determined as 0.64 ± 0.046.
As for YMLSMIYEIEMM, the protein stability index turned out to be 0.578 ± 0.04.
On to YNRALPGGQAML, for which the protein stability index was 0.795 ± 0.039.
In turn, YPHPPRPSNQLF registered a protein stability index of 0.615 ± 0.0079.
In turn, YPIRPRYSPAGN gave a protein stability index of 0.721 ± 0.043.
For YPPCSPGPLAPS, the protein stability index stood at 0.672 ± 0.026.
Then YPPPPLPPPRPP, with 0.555 ± 0.015.
YPPYPSHSSLHT: the protein stability index is 0.6987 ± 0.0062.
For YPSDLRPPSSPI the value was 0.7512 ± 0.0041.
Then YPSTESPAGLAL, with 0.726 ± 0.025; and YPTQSPSPAPPT, with 0.644 ± 0.099.
Regarding YQDDGRRPGFVI, the protein stability index was 0.675 ± 0.013.
Take YQDGLCYYFCTT: the protein stability index was determined as 0.559 ± 0.02.
With YQSHFERSGVAR, the protein stability index is 0.674 ± 0.077.
On to YRFFGGYWETGW, for which the protein stability index amounted to 0.744 ± 0.033.
As to YRLCEARVQSDN, the protein stability index came to 0.685 ± 0.022.
Then YRSLFPAPPLHP, with 0.6747 ± 0.0026; and YRSTPTGPPRPT, with 0.758 ± 0.13; and YSASPLSCICPP, with 0.652 ± 0.053.
For YSFVKEFLNHRY, the protein stability index worked out at 0.681 ± 0.036.
YSGLNRVPDFCH yielded a protein stability index of 0.676 ± 0.039.
On to YSGRGLISNHGY, for which the protein stability index was found to be 0.723 ± 0.043.
For the sequence YSLQSCGFLANE, the protein stability index came to 0.642 ± 0.03.
Turning to YTPPNTLCPPVA, the protein stability index is 0.703 ± 0.24.
For the sequence YTSHRGKVYMSV, the protein stability index turned out to be 0.632 ± 0.019.
For the sequence YTTVRGETRSQL, the protein stability index is 0.727 ± 0.017.
As for YVARRRPHPTGP, the protein stability index came to 0.778 ± 0.17.
Take YVFFPNGGLRLG: the protein stability index turned out to be 0.564 ± 0.022.
YVGGGAGVLLVL had a protein stability index of 0.623 ± 0.014.
In the case of YVGLSSRSFLSF, the protein stability index was determined as 0.687 ± 0.033.
For YVSSYILPVTRV the value was 0.603 ± 0.045; for YVTPALRPTSSR, 0.728 ± 0.031.
Regarding YWAPYVWMFGFR, the protein stability index came to 0.565 ± 0.0088.
Then YYPRGIYHNSMT, with 0.713 ± 0.033.

Source of the values: the supplement of paper PMC10724198.
